IntAct's records for PubMed 20388642

B1: Ras-related protein Rab-8A (Homo sapiens), P61006 (parent)
chain: MAKTYDYLFKLLLIGDSGVGKTCVLFRFSEDAFNSTFISTIGIDFKIRTIELDGKRIKLQIWDTAGQERFRTITTAYYRGAMGIMLVYDITNEKSFDNIRNWIRNIEEHASADVEKMILGNKCDVNDKRQVSKERGEKLALDYGIKFMETSAKANINVENAFFTLARDIKAKMDKKLEGNSPQGSNQGVKITPDQQKRSSFFRCVLL

Variants of: B1
Conditions: with optn_human OPTN

| effect of a mutation on the interaction | Variant |
| --- | --- |
| decreasing interaction | MAKTYDYLFKLLLIGDSGVGKNCVLFRFSEDAFNSTFISTIGIDFKIRTIELDGKRIKLQIWDTAGQERFRTITTAYYRGAMGIMLVYDITNEKSFDNIRNWIRNIEEHASADVEKMILGNKCDVNDKRQVSKERGEKLALDYGIKFMETSAKANINVENAFFTLARDIKAKMDKKLEGNSPQGSNQGVKITPDQQKRSSFFRCVLL [T22N] |
